The chains are these.
B1: 10G7: HLA-A2-restricted T cell clone/TCR recognizing HSP105-derived peptide; SEQ ID NO: 197, 198 (protein, listed as Homo sapiens)
chain 1: MWGVFLLYVSMKMGGTTGQNIDQPTEMTATEGAIVQINCTYQTSGFNGLFWYQQHAGEAPTFLSYNVLDGLEEKGRFSSFLSRSKGYSYLLLKELQMKDSASYLCAVRALREAGTALIFGKGTTLSVSS
chain 2: MDTWLVCWAIFSLLKAGLTEPEVTQTPSHQVTQMGQEVILRCVPISNHLYFYWYRQILGQKVEFLVSFYNNEISEKSEIFDDQFSVERPDGSNFTLKIRSTKLEDSAMYFCASSQNREAFFGQGTRLTVV
B2: 7B9: HLA-A2-restricted T cell clone/TCR recognizing HSP105-derived peptide; SEQ ID NO: 195, 196 (protein, listed as Homo sapiens)
chain 1: METLLGVSLVILWLQLARVNSQQGEEDPQALSIQEGENATMNCSYKTSINNLQWYRQNSGRGLVHLILIRSNEREKHSGRLRVTLDTSKKSSSLLITASRAADTASYFCATDTGGAQKLVFGQGTRLTINP
chain 2: MDSWTLCCVSLCILVAKHTDAGVIQSPRHEVTEMGQEVTLRCKPISGHDYLFWYRQTMMRGLELLIYFNNNVPIDDSGMPEDRFSAKMPNASFSTLKIQPSEPRDSAVYFCASSPDRGETQYFGPGTRLLVL
B3: 10C9: HLA-A2-restricted T cell clone/TCR recognizing HSP105-derived peptide; SEQ ID NO: 202, 203 (protein, listed as Homo sapiens)
chain 1: MSLSSLLKVVTASLWLGPGIAQKITQTQPGMFVQEKEAVTLDCTYDTSDPSYGLFWYKQPSSGEMIFLIYQGSYDQQNATEGRYSLNFQKARKSANLVISASQLGDSAMYFCAMRDRNTGNQFYFGTGTSLTVIP
chain 2: MGFRLLCCVAFCLLGAGPVDSGVTQTPKHLITATGQRVTLRCSPRSGDLSVYWYQQSLDQGLQFLIQYYNGEERAKGNILERFSAQQFPDLHSELNLSSLELGDSALYFCASSVEVYNEQFFGPGTRLTVL
B4: 11B9: HLA-A2-restricted T cell clone/TCR recognizing HSP105-derived peptide; SEQ ID NO: 193, 194 (protein, listed as Homo sapiens)
chain 1: MACPGFLWALVISTCLEFSMAQTVTQSQPEMSVQEAETVTLSCTYDTSESDYYLFWYKQPPSRQMILVIRQEAYKQQNATENRFSVNFQKAAKSFSLKISDSQLGDAAMYFCAYRIPGAGSYQLTFGKGTKLSVIP
chain 2: MGTRLLCWVVLGFLGTDHTGAGVSQSPRYKVAKRGQDVALRCDPISGHVSLFWYQQALGQGPEFLTYFQNEAQLDKSGLPSDRFFAERPEGSVSTLKIQRTQQEDSAVYLCASSPGLAGGAQETQYFGPGTRLLVL

In one data set the test system is SW620 cell line.
Assay: not given
Settings: not given
As for B1, the cytotoxic activity result was “No significant cytotoxic activity”.

With B2, the cytotoxic activity result was “No significant cytotoxic activity”.

B3: the cytotoxic activity entry is on record as “No significant cytotoxic activity”.

The subject of another data set is T2 cells to which an HSP105-derived peptide had been exogenously bound. Description: IFN-γ ELISPOT of HLA-A2-restricted HSP105-specific T cell clones. The data set is classed as cell-based. To be noted: coculture with HLA-A2 T2 cells in the presence of the peptide, 20 hours. As for the experimental part:
HSP105-HLA-A2 Dextramer was not capable of being sufficiently stained, thus being unavailable for detection of binding T cells. […] CD107a-positive CD8 T cells were selected by single sorting, and cultured on allofeeder cells to establish T cell clones.
The established T cell clones were cocultured with target cells (T2 cells) to which an HSP105-derived peptide had been exogenously bound for 20 hours, and the antigen stimulation-dependent IFN-γ productions were evaluated. The antigen specificities were evaluated by using cells to which a HIV-derived peptide had been bound as a negative control.
As to B1, the “antigen-specific IFN-γ production capability” value is recorded as “strong IFN-γ production capability”.

Take B2: the “antigen-specific IFN-γ production capability” value was “strong IFN-γ production capability”.

With B4, the “antigen-specific IFN-γ production capability” value is listed as “largely lower reactivity than the other clones”.

As to B3, the “antigen-specific IFN-γ production capability” value is “strong IFN-γ production capability”.

The next data set has as its system T2 cells to which the peptide had been exogenously bound.
Assay: not given
Settings: not given
Regarding B1, the “damaging (cytotoxic) activity” value is listed as “exhibited damaging activity”.

As to B3, the “damaging (cytotoxic) activity” value is listed as “exhibited damaging activity”.

The next data set relates to SiHaA2 cell line.
Assay: not given
Settings: not given
Consider B1, for which the cytotoxic activity entry is “No significant cytotoxic activity”.

With B2, the cytotoxic activity result is on record as “No significant cytotoxic activity”.

B3: the cytotoxic activity result was “No significant cytotoxic activity”.

In the next data set the test system is CasKi cell line.
Assay: not given
Settings: not given
Regarding B1, the cytotoxic activity entry was “significant cytotoxic activity”.

In the case of B2, the cytotoxic activity result was “significant cytotoxic activity”.

Take B3: the cytotoxic activity result is “significant cytotoxic activity”.

The values above are taken from patent publication US20250339504A1, “CANCER VACCINE WITH USE OF COMMON CANCER ANTIGEN COCKTAIL, TCR/CAR-T CELL THERAPEUTIC, COMPANION DIAGNOSTIC METHOD, AND METHOD FOR DIAGNOSING RISK OF CANCER ONSET BY DETECTING CIRCULATING TUMOR CELLS” (National Cancer Center, priority 2022, published 2025).
